In IntAct's records for PubMed 34964704:

B1: Claudin-2 (Homo sapiens), P57739 (parent)
chain: MASLGLQLVGYILGLLGLLGTLVAMLLPSWKTSSYVGASIVTAVGFSKGLWMECATHSTGITQCDIYSTLLGLPADIQAAQAMMVTSSAISSLACIISVVGMRCTVFCQESRAKDRVAVAGGVFFILGGLLGFIPVAWNLHGILRDFYSPLVPDSMKFEIGEALYLGIISSLFSLIAGIILCFSCSSQRNRSNYYDAYQAQPLATRSSPRPGQPPKVKSEFNSYSLTGYV

Variants of: B1
Conditions: with ap2m1_human AP2M1, Q96CW1
Chain of ap2m1_human AP2M1, Q96CW1 (Q96CW1 whole entry): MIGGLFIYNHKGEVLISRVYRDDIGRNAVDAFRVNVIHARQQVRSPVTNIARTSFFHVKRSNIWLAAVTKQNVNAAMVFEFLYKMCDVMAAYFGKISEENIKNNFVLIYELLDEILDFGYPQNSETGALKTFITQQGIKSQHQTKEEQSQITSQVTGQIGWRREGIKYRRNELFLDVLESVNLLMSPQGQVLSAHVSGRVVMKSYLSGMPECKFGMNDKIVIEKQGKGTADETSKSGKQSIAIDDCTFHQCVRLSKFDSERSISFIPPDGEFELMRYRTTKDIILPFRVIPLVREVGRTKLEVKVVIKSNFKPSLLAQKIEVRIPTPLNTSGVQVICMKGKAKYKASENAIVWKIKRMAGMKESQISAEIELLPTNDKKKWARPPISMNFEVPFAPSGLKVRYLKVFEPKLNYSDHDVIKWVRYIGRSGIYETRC

Variant	effect of a mutation on the interaction
Y148A;L151A	decreasing interaction strength
Y67A;L70A	disrupting interaction strength
Y67A;L70A;Y148A;L151A	disrupting interaction strength

Variants of: B1
Conditions: with ap2m1_human AP2M1, Q96CW1
Remark: another data set of the same source

Variant	effect of a mutation on the interaction
Y67A;L70A;Y148A;L151A	disrupting interaction
